# Measurements published in article PMC6914368 (Nature, 2019).
# B1: EccB3 (natural protein)
# chain: MTGPVNPDDRRSFSSRTPVNENPDGVQYRRGFVTRHQVSGWRFVMRRIASGVALHDTRMLVDPLRTQSRAVLTGALILVTGLVGCFIFSLFRPGGVPGNNAILADRSTSALYVRVGEQLHPVLNLTSARLISGSPDNPTMVKTSEIDKFPRGNLLGIPGAPERMVQNAATDAEWTVCDAVGGANPGVTVIAGPLGADGERAAPLPPDHAVLVHSDAEPNPGDWLLWDGKRSPIDLADRAVTDALGLGGQALAPRPIAAGLFNAVPAAPALTAPVIPDAGAAPQFELSLPVPVGAVVVAYDADNTARYYAVLSDGLQPISPVLAAILRNTDSHGFAQPPRLGPDEVARTPMSRGLDTSAYPDNPVTLVEASAHPVTCAHWTKPSDAAESSLSVLSGAVLPLAEGLHTVDLVGAGAGGAANRVALTPGTGYFVQTVGAEPGSPTAGSMFWVSDTGVRYGIDTAEDDKVVAALGLSTSPLPVPWSVLSQFAAGPALSRGDALVAHDAVSTNPNSARMEASR
# B2: EccE3 (natural protein)
# chain: MTARIALASLFVVAAVLAQPWQTTTQRWVLGVSIAAVIVLLAWWKGMFLTTRIGRALAMVRRNRAEDTVETDAHRATVVLRVDPAAPAQLPVVVGYLDRYGITCDKVRITHRDAGGTRRSWISLTVDAVDNLAALQARSARIPLQDTTEVVGRRLADHLREQGWTVTVVEGVDTPLPVSGKETWRGVADDAGVVAAYRVKVDDRLDEVLAEIGHLPAEETWTALEFTGSPAEPLLTVCAAVRTSDRPAAKAPLAGLTPARGRHRPALAALNPLSTERLDGTAVPLPAVVRTSVKGSVEHEAAQEAGHPA
# B3: EccD3 with N-terminal Strep-tag II (natural protein)
# chain: MSENTVMPIVRVAVLAAGDDGGRLTEMALPSELPLREILPAVQRIVQPARENDGAADPAAAPNPVRLSLAPIGGAPFSLDATLDTVGVVDGDLLALQAVPSGPPAPRIVEDIADAAVIFSEARRRQWGPTHIARGAALALIGLILVGTGLSVAHRVITGDLLGQFIVSGIALATVIAALAVRNRSAVLATSLAVTALVPVAAAFALGVPGDFGAPNVLLAAAGVAAWSLISMAGSPDDRGIAVFTATAVTGVGVLLVAGAASLWVISSDVIGCALVLLGLIVTVQAAQLSAMWARFPLPVIPAPGDPTPAARPLSVLADLPRRVRVSQAHQTGVIAAGVLLGVAGSVALVSSANASPWAWYIVVAAAAGAALRARVWDSAACKAWLLGHSYLLAVALLVAFVIGDRYQAALWALAALAVLVLVWIVAALNPKIASPDTYSLPMRRMVGFLATGLDASLIPVMALLVGLFSLVLDR
# B4: EccD3 (untagged, from the ESX-3 gene cluster plasmid pMyNT:ESX-3) (natural protein)
# chain: B3 chain
# What was measured:
# [1] = molecular target: ESX-3 core complex protomer EccB3:EccC3:EccD3:EccE3 (1:1:2:1), from pMyNT:Mini (Mycobacterium smegmatis) (UniProt A0QQ39); experiment: cryo-EM structure
# [2] = molecular target: ESX-3 core complex protomer EccB3:EccC3:EccD3:EccE3, from pMyNT:ESX-3 (whole gene cluster) (Mycobacterium smegmatis) (UniProt A0QQ39); experiment: SEC
# [3] = molecular target: EccB3:EccC3:EccD3 subcomplex (Mycobacterium smegmatis) (UniProt A0QQ39); experiment: SEC
# [4] = molecular target: T1, EccC3 with C-terminal His-tag (Mycobacterium smegmatis, UniProt A0QQ40 1-1325); experiment: densitometry of SDS-PAGE bands
# T1 sequence: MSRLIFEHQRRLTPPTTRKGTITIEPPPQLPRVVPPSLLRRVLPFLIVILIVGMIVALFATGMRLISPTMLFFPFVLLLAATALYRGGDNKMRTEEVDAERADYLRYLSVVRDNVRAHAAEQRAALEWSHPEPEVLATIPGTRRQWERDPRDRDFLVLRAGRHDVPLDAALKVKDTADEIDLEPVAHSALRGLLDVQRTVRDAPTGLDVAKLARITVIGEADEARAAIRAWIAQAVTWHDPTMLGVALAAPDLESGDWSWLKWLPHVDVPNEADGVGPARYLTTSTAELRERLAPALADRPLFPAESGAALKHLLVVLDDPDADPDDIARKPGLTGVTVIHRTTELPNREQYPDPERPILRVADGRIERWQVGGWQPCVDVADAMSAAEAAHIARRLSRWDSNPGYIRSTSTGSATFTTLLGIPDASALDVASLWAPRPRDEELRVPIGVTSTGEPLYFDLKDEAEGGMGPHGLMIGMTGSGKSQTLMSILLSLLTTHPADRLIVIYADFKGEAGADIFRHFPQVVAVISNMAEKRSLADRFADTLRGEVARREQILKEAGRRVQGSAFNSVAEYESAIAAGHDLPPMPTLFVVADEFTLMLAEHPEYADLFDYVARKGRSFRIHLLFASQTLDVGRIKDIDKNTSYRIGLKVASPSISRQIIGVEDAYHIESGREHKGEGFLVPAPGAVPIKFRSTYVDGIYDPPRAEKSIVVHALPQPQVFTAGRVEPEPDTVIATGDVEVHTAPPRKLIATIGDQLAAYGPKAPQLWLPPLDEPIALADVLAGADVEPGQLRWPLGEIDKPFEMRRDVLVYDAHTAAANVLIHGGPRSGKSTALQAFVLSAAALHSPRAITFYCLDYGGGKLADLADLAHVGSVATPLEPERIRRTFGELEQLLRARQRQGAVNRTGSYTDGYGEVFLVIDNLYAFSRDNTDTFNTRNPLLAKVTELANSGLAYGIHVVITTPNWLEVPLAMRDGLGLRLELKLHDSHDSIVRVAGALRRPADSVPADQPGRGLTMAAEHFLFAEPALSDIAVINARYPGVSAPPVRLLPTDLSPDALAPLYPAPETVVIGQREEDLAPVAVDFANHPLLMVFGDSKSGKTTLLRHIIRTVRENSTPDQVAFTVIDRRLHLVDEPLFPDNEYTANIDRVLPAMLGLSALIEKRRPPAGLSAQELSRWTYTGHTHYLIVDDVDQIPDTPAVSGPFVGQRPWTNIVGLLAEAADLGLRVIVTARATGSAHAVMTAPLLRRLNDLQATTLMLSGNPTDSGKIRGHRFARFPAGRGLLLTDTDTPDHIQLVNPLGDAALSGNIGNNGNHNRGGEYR
# [5] = molecular target: the molecule itself; experiment: cryo-EM structure
# [6] = molecular target: the molecule itself; experiment: SEC-MALS
molecule,measurement,setting,value
"ESX-3 core complex protomer EccB3:EccC3:EccD3:EccE3 (1:1:2:1), from pMyNT:Mini (from UniProt A0QQ39;A0QQ40;A0QQ46;A0QQ48)",stoichiometry N,[1],2
"ESX-3 core complex protomer EccB3:EccC3:EccD3:EccE3, from pMyNT:ESX-3 (whole gene cluster) (from UniProt A0QQ39;A0QQ40;A0QQ46;A0QQ48)",stoichiometry N,[2],2
EccB3:EccC3:EccD3 subcomplex (from UniProt A0QQ39;A0QQ40;A0QQ46),stoichiometry N,[3],2
B1,stoichiometry N,[4],1
same,stoichiometry N,[5],2
B2,stoichiometry N,[4],1
B3,stoichiometry N,[6],2
same,stoichiometry N,[4],2
B4,stoichiometry N,[4],2
